Data set [1] in a line: Fluorescence polarization spectroscopy, equilibrium affinity Kd. To be noted: biotin-fluorescein, overnight incubation at room temperature, PBS 0.1 mg/ml BSA; read-out: equilibrium binding constant Kd. How it is done:
FIG. 4. In vitro characterization of purified mSA mutants. a) Stability of mSA-RF and mSA-RWT in PBS was measured by circular dichroism spectroscopy with or without biotin. b) Fluorescence polarization spectroscopy was used to measure the dissociation rate of biotin-fluorescein. The dissociation rate, koff, was computed by fitting normalized fluorescence polarization data, or bound fraction f, to an exponentially decaying function, i.e. ƒ=e^−k^off^*t The measurements were taken at 37° C. c) The equilibrium affinity of binding Kd between mSA-RF and biotin-fluorescein was measured by FP. d) mSA-S25H and mSA-RF were analyzed by size exclusion chromatography to estimate their molecular weights in solution. […]
The binding of biotinylated fluorescein (bf, AnaSpec) was measured using a microplate reader (SpectraMax® i3 Microplate reader from Molecular Devices) in flat bottom 96 well plates (Sterilin Ltd). […] After overnight incubation at room temperature, the fluorescence polarization values were measured and fit to the quadratic binding equation (Hsu and Park, 2010, J Mol Graph Model, 29, 295-308). […] To observe dissociation of bf, excess free biotin was added to a final concentration of 100 μM and recording of fluorescence was started immediately. The intensity of polarized fluorescence was measured at various time points and normalized with respect to the value at t=0 min. […]
(In fluorescence polarisation assays a small probe gives low polarisation when free and higher when bound to something large.)

Data set [2] in a line: Circular dichroism spectroscopy, thermal denaturation. It counts as physicochemical. How it is done:
(§1) FIG. 4. In vitro characterization of purified mSA mutants. a) Stability of mSA-RF and mSA-RWT in PBS was measured by circular dichroism spectroscopy with or without biotin. b) Fluorescence polarization spectroscopy was used to measure the dissociation rate of biotin-fluorescein. The dissociation rate, koff, was computed by fitting normalized fluorescence polarization data, or bound fraction f, to an exponentially decaying function, i.e. ƒ=e^−k^off^*t The measurements were taken at 37° C. c) The equilibrium affinity of binding Kd between mSA-RF and biotin-fluorescein was measured by FP. d) mSA-S25H and mSA-RF were analyzed by size exclusion chromatography to estimate their molecular weights in solution. Each mutant eluted with a retention time that was consistent with monomeric streptavidin. The molecular weight standards (arrows) correspond to 66.0, 29.0, 12.4 and 6.5 kDa from left to right.
FIG. 8. Circular dichroism spectra of mSA-RF after low pH treatment to release bound biotin is shown in a). mSA-RF was first buffer exchanged to 100 mM glycine (pH 2.3) and then back to PBS (pH 7.5) before CD analysis. The spectra obtained at temperatures 30, 40, 50, 60, 70, and 80° C. were overlaid. The spectra at lower temperatures were colored darker than the spectra at higher temperatures, i.e. the darkest for 30° C. and the lightest for 80° C. The CD values at 235 nm (from FIG. 8a) were used to compute the unfolded fraction shown in b).
FIG. 9. To evaluate the importance of the biotin additive, mSA was induced without biotin in the medium as shown in a). The culture medium was then pH adjusted to 7.5 and poured over Ni-NTA resin, which immediately turned brown (not shown). 1. Culture medium, 2. Flow through after Ni-NTA, 3. Wash, 4. Elution. The amount of purified mSA was approximately 20% of the expressed protein. (*) mSA. Thermal denaturation of mSA-RF purified with (circle) and without (square) biotin in the medium is shown in b).
Purified mSA was diluted to 15 μM in PBS and loaded in a quartz cuvette with 1.0 mm path length. […]
On the technique in general: Circular dichroism is widely used to follow secondary structure.

Data set [3] can be described thus: Fluorescence polarization spectroscopy, biotin dissociation rate (koff). Type of data set: binding. To be noted: 37° C. How it is done:
as §1
The binding of biotinylated fluorescein (bf, AnaSpec) was measured using a microplate reader (SpectraMax® i3 Microplate reader from Molecular Devices) in flat bottom 96 well plates (Sterilin Ltd). To measure Kd, 100 nM bf was first mixed with titrating amounts of mSA in PBS containing 0.1 mg/ml bovine serum albumin (BSA). After overnight incubation at room temperature, the fluorescence polarization values were measured and fit to the quadratic binding equation (Hsu and Park, 2010, J Mol Graph Model, 29, 295-308). To measure the off rate (koff), 10 nM bf was first mixed with 50 nM mSA and incubated for 2 hr to form a biotin-mSA complex. To observe dissociation of bf, excess free biotin was added to a final concentration of 100 μM and recording of fluorescence was started immediately. The intensity of polarized fluorescence was measured at various time points and normalized with respect to the value at t=0 min. The intensities were fit to an exponentially decaying function e^−k^off^*t to compute koff. The dissociation half-life t1/2=0.693/koff.
We measured the biotin dissociation rate of various mSA mutants by fluorescence polarization spectroscopy. Table 2 presents the biotin dissociation rate (koff) of various mutants measured by fluorescence polarization spectroscopy. The S25R mutation lowered koff by nearly 21 fold compared to the original mSA and 3.3 fold compared to the S25H mutant (Table 2, FIG. 4b).

The subject of data set [4] is HEK293 cells displaying biotinylated AP-CFP. Kind of data set: Fluorescent labeling of cell surface biotinylated receptor, confocal microscopy. Type of data set: cell-based. An excerpt: FIG. 5. Fluorescent labeling of HEK293 cells displaying biotinylated receptor. a) HEK293 cells displaying biotinylated AP-CFP were labeled with Alexa488-conjugated mSA-RWT and imaged by fluorescence microscopy. Fluorescence was filtered for (i) CFP and (ii) Alexa488 and the same field of vision was imaged multiple times at regular intervals to measure the stability of labeling. iii. DIC. mSA-RWT binds only CFP positive cells, indicating high specificity of interaction. b-c) HEK293 displaying unrelated protein fused to CFP b) or untransfected HEK293 c) were treated with purified BirA and then labeled with fluorescent mSA-RWT as in part (a) (i)-(iii) the same as before. d) The captured fluorescence images of mSA-RWT—Alexa488 labeled cells (in jpg format) were loaded into MatLab and the amount of CFP and Alexa488 fluorescence was quantified by summing over pixel values. The fluorescence intensity was normalized with respect to the value at t=0. e) Cells labeled with mSA-RF—EGFP were similarly imaged and analyzed to determine the time dependent loss of mSA labeling.
Adherent HEK293 cells were seeded in a 24 well plate (Becton Dickinson) and grown in DMEM supplemented with 10% FBS and antibiotic/antimycotic (Invitrogen). At 50% confluency, the cells were transfected with a plasmid containing pDisplay-AP-CFP-TM. After 2 days the wells were supplemented with 100 nM purified BirA, 5 mM ATP, and 0.3 mM biotin and the biotinylation reaction was carried out overnight. The following morning, the cells were detached from the wells using EDTA Solution (Versene from Life Technologies), washed with PBS containing 0.1% w/v BSA (PBSF), and fixed in 4% paraformaldehyde solution. Prior to microscopy, cells were labeled with 1 μM mSA-RWT—Alexa488 or 1 μM mSA-RF—EGFP in PBSF for 30 minutes. Excess protein was washed away and cells were switched to PBSF with 0.9 mM biotin. Each sample was mounted on slides and imaged using confocal microscopy. The same field of view was imaged every 10 min for 60 min to quantify fluorescence loss as a function of time. The captured images were analyzed with microscope software (ZEN from Zeiss, and MatLab® from MathWorks).
We tested the use of mSA-RWT or mSA-RF in cell imaging, in which biotinylated proteins on the cell surface were labeled with Alexa488 conjugated mSA-RWT or mSA-RF fused to EGFP, and imaged by fluorescence confocal microscopy. Cell imaging is an important test of whether engineered mutants can specifically interact with biotinylated ligands in a heterogeneous environment, in which other potentially competing interactions can interfere with desired detection. […]
To evaluate the stability of labeling, we imaged the labeled cells repeatedly over 1 hr and quantified the fluorescence intensity of Alexa488 or GFP at regular intervals. […]

The conditions of data set [5]: biotin; monomer at low pH and protein concentrations; cited from earlier work.

This is an account of results in patent US10759835B2, “Monomeric streptavidin mutants, methods of using the same and processes of manufacturing proteins” (The Research Foundation for The State University of New York, priority 2016, dated 2020).

“And” between values parts separate entries of the source, which are not always exact repeats. Equal entries are not always repeated. Where two headings read alike, the source gives them in different places.

B1: mSA-RF: monomeric streptavidin mutant SEQ ID NO: 3, S25R and T48F (protein)
chain: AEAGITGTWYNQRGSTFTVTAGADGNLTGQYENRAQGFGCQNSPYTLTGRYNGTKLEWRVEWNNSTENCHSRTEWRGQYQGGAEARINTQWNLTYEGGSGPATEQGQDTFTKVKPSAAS
modifications: Modified streptavidin
The term Kd denotes a measure of binding affinity in units of concentration. B1: in data set [1], the Kd came to 1.3 nM. The denaturation temperature in data set [2] (after low pH treatment (100 mM glycine pH 2.3) and exchange back to PBS pH 7.5) amounted to 60 °C. Besides, the values for the thermal unfolding behaviour entry in data set [2] (protein purified with biotin in the medium) and in data set [2] (protein purified without biotin in the medium) were “clear two state unfolding transition” and “does not show such transition”, respectively. Moreover, the “t1/2” value in data set [3] (dissociation half-life t1/2=0.693/koff, biotin-fluorescein) is 6.7 h and 6.7 ± 0.3 h. Moreover, the “Koff(×10^−3 min^−1)” value in data set [3] (dissociation of biotin-fluorescein, excess free biotin 100 μM) was 1.73 ± 0.79 ×10^−3 min^−1. For the same molecule, the “Alexa488/GFP fluorescence of labeled cells over time” value in data set [4] (after 1 hr, 900 μM biotin in the labeling solution) is given as “remained high”. Moreover, in data set [4] (fixed HEK293 cells, 1 μM for 30 minutes), the “labeling of cells displaying biotinylated AP-CFP” value was “Only CFP positive cells were labeled selectively”.

B2: Brad2: bradavidin 2, streptavidin homolog, SEQ ID NO: 21 (protein, listed as Bradyrhizobium japonicum)
chain: QGLPAPSYWKNERGSELLIWSANSGTIQGTFTNHAQGFACQGIPYPAAGSVSPTGLYFVVTFAQCNSFTRWVGTIKGSQMPTSWTLFYVDNKGKPSRLKGGDIFTRVW
For the molecule B2, the Kd in data set [5] was below 0.1 nM.
